{
  "source": "patent US20240368668",
  "proteins": {"B1": {"name": "purified full-length mouse ADAMTS7 S3A WT 3xFlag (protein)", "chain": "SVAKEKWVETLVVADSKMVEYHGQPQVESYVLTIMNMVAGLFHDPSIGNPIHISIVRLIILEDEEKDLKITHHAEETLKNFCRWQKNINIKGDDHPQHHDTAILLTRKDLCASMNQPCETLGLSHVSGLCHPQLSCSVSEDTGMPLAFTVAHELGHSFGIQHDGTGNDCESIGKRPFIMSPQLLYDRGIPLTWSRCSREYITRFLDRGWGLCLDDRPSKDVIALPSVLPGVLYDVNHQCRLQYGSHSAYCEDMDDVCHTLWCSVGTTCHSKLDAAVDGTSCGKNKWCLKGECVPEGFQPEAVDGGWSGWSAWSDCSRSCGVGVRSSERQCTQPVPKNRGKYCVGERKRSQLCNLPACPPDRPSFRHTQCSQFDGMLYKGKLHKWVPVPNDDNPCELHCRPSNSSNTEKLRDAVVDGTPCYQSRISRDICLNGICKNVGCDFVIDSGAEEDRCGVCRGDGSTCQTVSRTFKETEGQGYVDIGLIPAGAREILIEEVAEAANFLALRSEDPDKYFLNGGWTIQWNGDYRVAGTTFTYARKGNWENLTSPGPTSEPVWIQLLFQEKNPGVHYQYTIQRDSHDQVRPPEFSWHYGPWSKCTVTCGTGVQRQSLYCMERQAGVVAEEYCNTLNRPDERQRKCSEEPCPPRWWAGEWQPCSRSCGPEGLSRRAVFCIRSMGLDEQRALELSACEHLPRPLAETPCNRHVICPSTWGVGNWSQCSVTCGAGIRQRSVLCINNTDVPCDEAERPITETFCFLQPCQYPMYIVDTGASGSGSSSPELFNEVDFIPNQLAPRPSPASSPKPVSISNAIDEEELDPPGPVFVDDFYYDYNFINFHEDLSYGSFEEPHPDLVDNGGWTAPPHIRPTESPSDTPVPTAGALGAEAEDIQGSWSPSPLLSEASYSPPGLEQTSINPLANFLTEEDTPMGAPELGFPSLPWPPASVDDMMTPVGPGNPDELLVKEDEQSPPSTPWSDRNKLSTDGNPLGHTSPALPQSPIPTQPSPPSISPTQASPSPDVVEVSTGWNAAWDPVLEADLKPGHGELPSTVEVASPPLLPMATVPGIWGRDSPLEPGTPTFSSPELSSQHLKTLTMPGTLLLTVPTDLRSPGPSGQPQTPNLEGTQSPGLLPTPARETQTNSSKDPEVQPLQPSLEEDGDPADPLPARNASWQVGNWSQCSTTCGLGAIWRLVSCSSGNDEDCTLASRPQPARHCHLRPCAAWRTGNWSKCSRNCGGGSSTRDVQCVDTRDLRPLRPFHCQPGPTKPPNRQLCGTQPCLPWYTSSWRECSEACGGGEQQRLVTCPEPGLCEESLRPNNSRPCNTHPCTQWVVGPWGQCSAPCGGGVQRRLVRCVNTQTGLAEEDSDLCSHEAWPESSRPCATEDCELVEPPRCERDRLSFNFCETLRLLGRCQLPTIRAQCCRSCPPLSRGVPSRGHQRVARR"}},
  "key": {"[1]": {"target": "T1, purified recombinant human HA-tagged EFEMP1/Fibulin-3 (R&D, 8416-FB), Q12805", "T1 chain": "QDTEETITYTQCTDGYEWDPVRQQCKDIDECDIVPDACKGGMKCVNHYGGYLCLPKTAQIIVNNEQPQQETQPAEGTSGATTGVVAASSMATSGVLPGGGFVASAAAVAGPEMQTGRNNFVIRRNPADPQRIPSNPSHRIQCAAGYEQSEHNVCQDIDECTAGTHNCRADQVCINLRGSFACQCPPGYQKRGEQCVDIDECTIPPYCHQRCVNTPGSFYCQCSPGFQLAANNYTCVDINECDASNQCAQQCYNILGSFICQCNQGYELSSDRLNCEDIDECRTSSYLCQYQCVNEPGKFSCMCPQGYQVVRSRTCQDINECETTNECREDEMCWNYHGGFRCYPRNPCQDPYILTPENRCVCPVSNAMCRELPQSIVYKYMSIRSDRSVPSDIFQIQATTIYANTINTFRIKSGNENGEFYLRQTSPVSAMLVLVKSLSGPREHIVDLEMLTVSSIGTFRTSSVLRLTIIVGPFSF"}, "[2]": {"target": "Q68SA9"}},
  "data": [
    {"protein": "B1", "values": [
      {"measurement": "in vitro cleavage, 4 hours at 37 C, western blot", "setting": "[1]", "result": "Full-length HA-EFEMP1 was detected at the expected position and a lower band was detected matching the predicted HA tagged amino terminus after cleavage by ADAMTS7 in the atypical first EGF domain"},
      {"measurement": "auto-cleavage, peptide sequencing of the purified protein", "setting": "[2]", "result": "Peptide sequencing (Tufts University Core Facility) of the lower band or the total purified WT S3A protein identified a potential auto-cleavage site at F1062 (SYGS|FEEP)"}
    ]}
  ]
}
